Assay [1] addresses T1, 携带组氨酸标签的人IL-12(IL-12-His) (human, UniProt P29459 23-219; P29460 23-328).
T1 construct: Recombinant His-tagged human IL-12 made in mammalian cells; Coated on the plate in the ELISA; also called IL-12蛋白; biotin标记的IL-12-His
T1 sequence (looked up) 1: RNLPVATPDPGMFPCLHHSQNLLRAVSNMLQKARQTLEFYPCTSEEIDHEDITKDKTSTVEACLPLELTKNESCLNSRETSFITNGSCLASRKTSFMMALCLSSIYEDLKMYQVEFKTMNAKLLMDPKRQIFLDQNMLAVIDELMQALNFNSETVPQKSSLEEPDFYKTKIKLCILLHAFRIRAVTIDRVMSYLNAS
T1 sequence (looked up) 2: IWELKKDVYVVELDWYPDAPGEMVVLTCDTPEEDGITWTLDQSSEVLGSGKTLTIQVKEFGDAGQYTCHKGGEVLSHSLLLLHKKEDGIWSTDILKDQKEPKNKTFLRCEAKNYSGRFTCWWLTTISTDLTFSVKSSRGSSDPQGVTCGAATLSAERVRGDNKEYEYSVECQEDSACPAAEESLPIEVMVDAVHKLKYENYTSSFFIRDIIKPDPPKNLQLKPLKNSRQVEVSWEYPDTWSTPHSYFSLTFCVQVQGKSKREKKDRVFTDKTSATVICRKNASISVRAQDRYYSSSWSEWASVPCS
Description: ELISA, IL-12-His coated on plate. In general terms: In an ELISA, binding on a coated surface is turned into a signal by an enzyme label.

Assay [2] deals with T1, 携带组氨酸标签的人IL-12(IL-12-His). Put plainly: ELISA, IL-12-His coated on plate. This is another data set of the same source.
The target of assay [3] is T1, 携带组氨酸标签的人IL-12(IL-12-His). Put plainly: FACS, blocking of biotin-labelled IL-12-His binding to CHO-IL-12R cells. In general terms: A flow cytometer gives signals particle by particle.

These results are taken from patent CN113321729A (DONGDA BIOTECHNOLOGY SUZHOU CO LTD, dated 2021).

B1: 19A4 (antibody, V domains shown)
VH: EVQLVESGGGLVKPGGSLQVSCAASGFSFSSYGMSWVRQTPDKRLEWVATIGSGGLYTYSPDTVKGRFSISRDDAKNTLYLQMNSLTSEDTAMYYCATSGPFAYWGQGTLVTVSA
VL: DIKMTQSPSSMYASLGERVTITCKASQDINRNLNWFQQKPGNSPKTLIIRTNRLVDGVPSRFSGSGSGQVYSLTVSSLEFGDMGIYFCLQFDEFPWTFGGGTTLEIK
notes: Mouse hybridoma antibody purified on Protein A; also called IL-12杂交瘤抗体
On to B1, for which the binding result in assay [1] is recorded as “binds”.

B2: 1B6 (antibody, V domains shown)
VH: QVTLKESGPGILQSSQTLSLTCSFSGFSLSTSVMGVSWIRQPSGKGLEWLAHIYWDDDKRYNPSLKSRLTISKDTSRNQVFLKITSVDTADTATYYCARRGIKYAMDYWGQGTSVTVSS
VL: NIVMTQTPKFLLVSAGDRVTITCKASQSVSNDVAWYQQKPGQSPKLLIYYASNRYTGVPDRFTGSGYGTDFTFTISTVQAEDLAVYFCQQDYTSPWTFGGGTKLEIK
notes: as for B1
Take B2: in assay [1], the binding result is given as “binds”.

B3: hu2A3 (antibody, V domains shown)
VH: QVQLVQSGAEVKKPGASVKVSCKASGFNIKDTYMHWVRQAPGQRLEWIGKIDPANGNTKYDPKFQGRATITADTSASTAYMELSSLRSEDTAVYYCSRRFYDSGFYYYFYIWGQGTLVTVSS
VL: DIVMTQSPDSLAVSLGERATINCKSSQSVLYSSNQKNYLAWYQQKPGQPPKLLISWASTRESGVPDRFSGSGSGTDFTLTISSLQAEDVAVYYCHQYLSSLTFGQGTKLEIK
notes: also called 2A3人源化抗体; 人源化抗体2A3
One may read the EC50 as the concentration needed to bring the measured effect to its halfway point. Read a low EC50 as a more potent agent. The term IC50 denotes the concentration needed to halve the response being measured. Molecule B3 registered an EC50 in assay [2] of 0.0571 µg/mL. In assay [3], this molecule registered an IC50 of 0.398 µg/mL.

B4: Ustekinumab (antibody, V domains shown)
VH: EVQLVQSGAEVKKPGESLKISCKGSGYSFTTYWLGWVRQMPGKGLDWIGIMSPVDSDIRYSPSFQGQVTMSVDKSITTAYLQWNSLKASDTAMYYCARRRPGQGYFDFWGQGTLVTVSS
VL: DIQMTQSPSSLSASVGDRVTITCRASQGISSWLAWYQQKPEKAPKSLIYAASSLQSGVPSRFSGSGSGTDFTLTISSLQPEDFATYYCQQYNIYPYTFGQGTKLEIK
As for B4, the EC50 in assay [2] amounted to 0.0718 µg/mL. Also, the IC50 in assay [3] turned out to be 0.224 µg/mL.

B5: 9E2 (antibody, V domains shown)
VH: EVQLQQSGAELVRPGASVKLSCTASGVNIKDYYMHWVKQRPEKGLEWIGMIDPEDGDTEYAPRFQAKATMTADTSSNTAYLQLNSLTSEDTAVYYCTITTVVRYFDVWGTGTTVRVSS
VL: DLVLSQSPATLSVTPGDSVSLSCRASQSISINLHWYQQKSHESPRLLIKYASQSISGIPSRFSGSGSGTDFTLSINSVETEDFGMYFCQQSNSWPFTFGGGTKLEIK
notes: as for B1
Take B5: the binding result in assay [1] is “binds”.

B6: hu11B4 (antibody, V domains shown)
VH: QVQLVQSGAEVKKPGASVKVSCKASGYAFTDYKMHWVRQAPGQRLEWIGHIYTYNGGADYNQKFKNRATLTVDISASTAYMELSSLRSEDTAVYYCATSGPFAYWGQGTLVTVSS
VL: EIVMTQSPATLSVSPGERATLSCKASQNVGTNVAWYQQKPGQAPRALIYSASKRFSGIPARFSGSGSGTEFTLTISSLQSEDFAVYYCLQYNNFPFTFGQGTKLEIK
notes: also called 11B4人源化抗体; 人源化抗体11B4
As for B6, the EC50 in assay [2] was determined as 0.0517 µg/mL. In assay [3], the half-inhibitory concentration (IC50) was 0.323 µg/mL.

B7: 2A3 (antibody, V domains shown)
VH: EVQLQQSGAELVKPGASVKLSCTASGFNIKDTYMHWLKQRPEQGLEWIGKIDPANGNTKYDPKFQGKATITADTSSNTAYLQLSSLTSEDTAVYYCSRRFYDSGFYYYFYIWGAGTTVTVSS
VL: NIMMTQSPSSLAVSAGEKVTMYCKSSQSVLYSSNQKNYLAWYQQKPGQSPKLLISWASTRESGVPDRFTGSGSGTDFTLTISSVQAEDLAVYYCHQYLSSLTFGAGTKLELK
notes: as for B1
Take B7: the binding result in assay [1] was “binds”.
